Patent US20240141072A1 (published 2024)

Legend:
Experiment in all cases: Octet BLI; biotinylated huDLL3-IgG1 fusion on streptavidin tips; single 50 nM trispecific, conditioned medium
[1] = target: T1, anti-DLL3 trispecific protein with DLL3 binding domain 53A05
T1 construct: trispecific, one chain
Procedure: (§1) Using the conditioned medium with known concentrations of the anti-DLL3 trispecific proteins, the relative binding affinities of the anti-DLL3 trispecific proteins toward human DLL3 protein were measured using a method where biotinylated version of human DLL3 protein were expressed as a human IgG1 fusion protein, and the binding affinity measurement was carried out in an Octet instrument with streptavidin tips.

[2] = target: T2, anti-DLL3 trispecific protein with DLL3 binding domain 52C04
T2 construct: trispecific, one chain; also called 52C4
Procedure: as §1

[3] = target: T3, anti-DLL3 trispecific protein with DLL3 binding domain 51H04
T3 construct: trispecific, one chain
Procedure: as §1

[4] = target: T4, anti-DLL3 trispecific protein with DLL3 binding domain 51A05
T4 construct: trispecific, one chain; also called 51A5
Procedure: as §1

[5] = target: T5, anti-DLL3 trispecific protein with DLL3 binding domain 51G02
T5 construct: trispecific, one chain; also called 51G2
Procedure: as §1

[6] = target: T6, anti-DLL3 trispecific protein with DLL3 binding domain 42B10
T6 construct: trispecific, one chain
Procedure: as §1

[7] = target: T7, anti-DLL3 trispecific protein with DLL3 binding domain 42G07
T7 construct: trispecific, one chain
Procedure: as §1

[8] = target: T8, anti-DLL3 trispecific protein with DLL3 binding domain 42D06
T8 construct: trispecific, one chain
Procedure: as §1

[9] = target: T9, anti-DLL3 trispecific protein with DLL3 binding domain 42A03
T9 construct: trispecific, one chain
Procedure: as §1

[10] = target: T10, anti-DLL3 trispecific protein with DLL3 binding domain 42A11
T10 construct: trispecific, one chain
Procedure: as §1

[11] = target: T11, anti-DLL3 trispecific protein with DLL3 binding domain 51A03
T11 construct: trispecific, one chain
Procedure: as §1

[12] = target: T12, anti-DLL3 trispecific protein with DLL3 binding domain 51F02
T12 construct: trispecific, one chain
Procedure: as §1

[13] = target: T13, anti-DLL3 trispecific protein with DLL3 binding domain 42E02
T13 construct: trispecific, one chain
Procedure: as §1

[14] = target: T14, anti-DLL3 trispecific protein with DLL3 binding domain 42H11
T14 construct: trispecific, one chain
Procedure: as §1

[15] = target: T15, anti-DLL3 trispecific protein with DLL3 binding domain 42B06
T15 construct: trispecific, one chain
Procedure: as §1

[16] = target: T16, anti-DLL3 trispecific protein with DLL3 binding domain 41E02
T16 construct: trispecific, one chain
Procedure: as §1

[17] = target: T17, anti-DLL3 trispecific protein with DLL3 binding domain 42A08
T17 construct: trispecific, one chain
Procedure: as §1

[18] = target: T18, anti-DLL3 trispecific protein with DLL3 binding domain 42E01
T18 construct: trispecific, one chain
Procedure: as §1

[19] = target: T19, anti-DLL3 trispecific protein with DLL3 binding domain 41D03
T19 construct: trispecific, one chain
Procedure: as §1

[20] = target: T20, anti-DLL3 trispecific protein with DLL3 binding domain 51G10
T20 construct: trispecific, one chain
Procedure: as §1

[21] = target: T21, anti-DLL3 trispecific protein with DLL3 binding domain 42D07
T21 construct: trispecific, one chain
Procedure: as §1

[22] = target: T22, anti-DLL3 trispecific protein with DLL3 binding domain 42C07
T22 construct: trispecific, one chain
Procedure: as §1

[23] = target: T23, anti-DLL3 trispecific protein with DLL3 binding domain 51C02
T23 construct: trispecific, one chain
Procedure: as §1

[24] = target: T24, anti-DLL3 trispecific protein with DLL3 binding domain 52B01
T24 construct: trispecific, one chain; also called 52B1
Procedure: as §1

[25] = target: T25, anti-DLL3 trispecific protein with DLL3 binding domain 51G04
T25 construct: trispecific, one chain
Procedure: as §1

[26] = target: T26, anti-DLL3 trispecific protein with DLL3 binding domain 41D07
T26 construct: trispecific, one chain
Procedure: as §1

[27] = target: T27, anti-DLL3 trispecific protein with DLL3 binding domain 51H05
T27 construct: trispecific, one chain; also called 51H5
Procedure: as §1

T25 sequence (chain, as listed by the source): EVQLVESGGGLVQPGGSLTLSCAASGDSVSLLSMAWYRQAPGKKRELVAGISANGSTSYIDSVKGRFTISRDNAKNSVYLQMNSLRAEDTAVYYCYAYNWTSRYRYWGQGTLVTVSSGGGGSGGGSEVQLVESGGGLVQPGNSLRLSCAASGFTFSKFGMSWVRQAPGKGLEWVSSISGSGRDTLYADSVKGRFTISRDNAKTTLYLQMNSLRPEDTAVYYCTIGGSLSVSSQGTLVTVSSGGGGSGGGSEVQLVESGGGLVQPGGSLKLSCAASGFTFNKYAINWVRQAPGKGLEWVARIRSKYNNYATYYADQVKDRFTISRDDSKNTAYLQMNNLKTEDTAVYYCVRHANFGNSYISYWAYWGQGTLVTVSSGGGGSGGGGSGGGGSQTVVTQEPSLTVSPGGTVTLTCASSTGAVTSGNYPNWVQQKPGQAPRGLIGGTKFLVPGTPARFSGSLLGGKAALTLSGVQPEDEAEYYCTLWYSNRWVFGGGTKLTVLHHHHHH
T11 sequence (chain, as listed by the source): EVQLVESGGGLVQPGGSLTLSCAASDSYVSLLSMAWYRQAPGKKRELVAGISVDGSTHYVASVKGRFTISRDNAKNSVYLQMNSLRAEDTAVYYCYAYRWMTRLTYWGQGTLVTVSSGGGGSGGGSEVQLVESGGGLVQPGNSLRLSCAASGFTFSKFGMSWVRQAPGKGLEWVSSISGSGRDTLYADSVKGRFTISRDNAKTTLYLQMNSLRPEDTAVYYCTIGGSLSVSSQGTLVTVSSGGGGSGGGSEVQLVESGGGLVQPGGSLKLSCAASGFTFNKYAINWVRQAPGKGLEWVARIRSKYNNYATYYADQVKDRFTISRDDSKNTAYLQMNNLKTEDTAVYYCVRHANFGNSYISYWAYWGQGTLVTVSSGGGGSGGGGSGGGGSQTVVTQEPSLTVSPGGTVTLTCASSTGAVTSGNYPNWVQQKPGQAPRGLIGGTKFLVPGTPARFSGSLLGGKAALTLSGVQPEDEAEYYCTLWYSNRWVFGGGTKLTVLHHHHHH
T27 sequence (chain, as listed by the source): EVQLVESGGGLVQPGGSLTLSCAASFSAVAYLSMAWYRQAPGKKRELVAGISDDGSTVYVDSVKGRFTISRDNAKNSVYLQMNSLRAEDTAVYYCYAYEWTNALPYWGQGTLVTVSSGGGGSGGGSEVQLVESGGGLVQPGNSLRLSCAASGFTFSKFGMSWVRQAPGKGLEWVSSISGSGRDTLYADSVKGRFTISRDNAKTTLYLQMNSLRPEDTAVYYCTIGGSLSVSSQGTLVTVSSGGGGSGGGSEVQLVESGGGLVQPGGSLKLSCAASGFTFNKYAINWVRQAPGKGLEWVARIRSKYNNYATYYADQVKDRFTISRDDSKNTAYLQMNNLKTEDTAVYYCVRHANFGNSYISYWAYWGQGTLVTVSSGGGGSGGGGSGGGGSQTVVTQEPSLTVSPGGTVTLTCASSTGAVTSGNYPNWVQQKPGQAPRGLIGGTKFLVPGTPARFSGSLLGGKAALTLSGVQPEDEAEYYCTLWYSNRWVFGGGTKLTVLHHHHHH
T20 sequence (chain, as listed by the source): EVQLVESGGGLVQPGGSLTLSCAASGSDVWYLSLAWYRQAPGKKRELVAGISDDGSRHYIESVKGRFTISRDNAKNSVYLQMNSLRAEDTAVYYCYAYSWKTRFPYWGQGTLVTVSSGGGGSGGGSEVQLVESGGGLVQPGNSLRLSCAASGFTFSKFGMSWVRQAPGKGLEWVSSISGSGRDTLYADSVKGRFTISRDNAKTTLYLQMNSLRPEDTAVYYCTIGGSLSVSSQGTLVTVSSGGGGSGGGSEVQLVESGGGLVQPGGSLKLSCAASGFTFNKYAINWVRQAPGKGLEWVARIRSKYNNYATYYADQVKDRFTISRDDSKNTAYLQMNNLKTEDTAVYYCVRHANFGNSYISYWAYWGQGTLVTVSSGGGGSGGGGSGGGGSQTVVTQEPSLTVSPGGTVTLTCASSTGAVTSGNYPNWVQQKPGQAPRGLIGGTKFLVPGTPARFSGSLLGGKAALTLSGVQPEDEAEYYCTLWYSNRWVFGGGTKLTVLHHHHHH
T10 sequence (chain, as listed by the source): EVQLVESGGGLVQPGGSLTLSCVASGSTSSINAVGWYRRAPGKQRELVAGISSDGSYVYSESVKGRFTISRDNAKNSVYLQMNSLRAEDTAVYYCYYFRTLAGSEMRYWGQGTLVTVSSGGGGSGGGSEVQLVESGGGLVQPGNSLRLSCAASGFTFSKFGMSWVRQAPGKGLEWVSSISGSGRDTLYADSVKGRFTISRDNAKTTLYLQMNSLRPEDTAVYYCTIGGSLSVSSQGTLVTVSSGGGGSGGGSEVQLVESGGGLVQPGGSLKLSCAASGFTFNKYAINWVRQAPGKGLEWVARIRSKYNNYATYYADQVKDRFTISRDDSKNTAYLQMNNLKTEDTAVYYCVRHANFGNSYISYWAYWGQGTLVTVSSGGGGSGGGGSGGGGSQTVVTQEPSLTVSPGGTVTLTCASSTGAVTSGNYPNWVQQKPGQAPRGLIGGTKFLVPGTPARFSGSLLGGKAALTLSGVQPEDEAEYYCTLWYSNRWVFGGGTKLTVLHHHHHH
T14 sequence (chain, as listed by the source): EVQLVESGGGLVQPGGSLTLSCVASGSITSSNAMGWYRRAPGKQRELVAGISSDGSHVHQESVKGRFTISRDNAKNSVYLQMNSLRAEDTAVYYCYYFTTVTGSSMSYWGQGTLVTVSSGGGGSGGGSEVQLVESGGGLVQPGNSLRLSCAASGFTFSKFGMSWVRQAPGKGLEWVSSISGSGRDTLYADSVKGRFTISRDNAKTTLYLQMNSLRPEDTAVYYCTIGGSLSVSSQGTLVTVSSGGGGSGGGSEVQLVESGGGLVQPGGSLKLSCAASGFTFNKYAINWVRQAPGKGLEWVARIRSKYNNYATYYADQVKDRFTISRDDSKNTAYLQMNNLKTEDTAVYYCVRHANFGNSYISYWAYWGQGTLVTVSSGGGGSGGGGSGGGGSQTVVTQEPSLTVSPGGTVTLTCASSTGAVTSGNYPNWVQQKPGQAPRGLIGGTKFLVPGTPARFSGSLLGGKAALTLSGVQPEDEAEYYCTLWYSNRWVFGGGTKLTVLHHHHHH
T3 sequence (chain, as listed by the source): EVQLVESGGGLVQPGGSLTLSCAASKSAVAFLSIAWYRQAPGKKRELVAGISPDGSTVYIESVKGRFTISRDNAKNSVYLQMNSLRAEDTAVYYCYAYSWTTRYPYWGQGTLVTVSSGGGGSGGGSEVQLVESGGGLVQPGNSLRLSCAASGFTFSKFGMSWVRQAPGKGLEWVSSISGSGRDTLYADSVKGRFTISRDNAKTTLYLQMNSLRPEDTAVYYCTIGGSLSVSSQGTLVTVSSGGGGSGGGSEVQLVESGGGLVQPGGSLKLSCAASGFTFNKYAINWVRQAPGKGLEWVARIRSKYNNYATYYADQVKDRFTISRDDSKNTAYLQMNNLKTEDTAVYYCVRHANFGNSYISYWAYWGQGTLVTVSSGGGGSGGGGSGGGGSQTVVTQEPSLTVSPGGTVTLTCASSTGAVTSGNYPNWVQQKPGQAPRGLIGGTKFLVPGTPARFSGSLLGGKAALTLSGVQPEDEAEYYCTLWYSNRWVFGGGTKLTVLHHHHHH
T9 sequence (chain, as listed by the source): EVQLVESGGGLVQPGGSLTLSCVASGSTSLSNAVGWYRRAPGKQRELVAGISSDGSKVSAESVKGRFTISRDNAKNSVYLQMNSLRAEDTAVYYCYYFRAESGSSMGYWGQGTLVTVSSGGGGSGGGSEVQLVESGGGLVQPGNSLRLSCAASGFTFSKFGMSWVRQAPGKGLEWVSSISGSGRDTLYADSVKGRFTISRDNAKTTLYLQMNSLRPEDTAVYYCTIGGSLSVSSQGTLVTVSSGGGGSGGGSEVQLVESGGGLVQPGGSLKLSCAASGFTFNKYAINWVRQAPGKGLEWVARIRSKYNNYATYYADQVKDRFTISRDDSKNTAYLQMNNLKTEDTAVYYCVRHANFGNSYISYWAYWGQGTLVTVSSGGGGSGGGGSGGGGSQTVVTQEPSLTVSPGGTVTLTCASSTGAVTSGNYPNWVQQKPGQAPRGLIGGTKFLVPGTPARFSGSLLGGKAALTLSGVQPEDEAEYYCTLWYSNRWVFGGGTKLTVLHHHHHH
T22 sequence (chain, as listed by the source): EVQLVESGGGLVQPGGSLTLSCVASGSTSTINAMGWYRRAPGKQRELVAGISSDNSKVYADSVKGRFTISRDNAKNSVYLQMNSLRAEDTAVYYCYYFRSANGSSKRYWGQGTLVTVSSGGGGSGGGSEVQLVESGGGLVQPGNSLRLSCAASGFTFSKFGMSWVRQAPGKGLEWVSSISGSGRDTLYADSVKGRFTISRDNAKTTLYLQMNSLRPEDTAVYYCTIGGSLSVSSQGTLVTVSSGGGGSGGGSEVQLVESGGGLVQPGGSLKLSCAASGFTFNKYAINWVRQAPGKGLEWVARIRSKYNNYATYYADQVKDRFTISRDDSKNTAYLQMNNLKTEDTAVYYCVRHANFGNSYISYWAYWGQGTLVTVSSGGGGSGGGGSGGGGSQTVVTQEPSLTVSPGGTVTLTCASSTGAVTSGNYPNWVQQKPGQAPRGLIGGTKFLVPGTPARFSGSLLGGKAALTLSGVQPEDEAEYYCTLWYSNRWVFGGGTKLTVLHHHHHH

B1: biotinylated human DLL3 protein expressed as a human IgG1 fusion protein (Fc fusion, not shown: a dimerising Fc or GST)
chain: AGVFELQIHSFGPGPGPGAPRSPCSARLPCRLFFRVCLKPGLSEEAAESPCALGAALSARGPVYTEQPGAPAPDLPLPDGLLQVPFRDAWPGTFSFIIETWREELGDQIGGPAWSLLARVAGRRRLAAGGPWARDIQRAGAWELRFSYRARCEPPAVGTACTRLCRPRSAPSRCGPGLRPCAPLEDECEAPLVCRAGCSPEHGFCEQPGECRCLEGWTGPLCTVPVSTSSCLSPRGPSSATTGCLVPGPGPCDGNPCANGGSCSETPRSFECTCPRGFYGLRCEVSGVTCADGPCFNGGLCVGGADPDSAYICHCPPGFQGSNCEKRVDRCSLQPCRNGGLCLDLGHALRCRCRAGFAGPRCEHDLDDCAGRACANGGTCVEGGGAHRCSCALGFGGRDCRERADPCAARPCAHGGRCYAHFSGLVCACAPGYMGARCEFPVHPDGASALPAAPPGLRPGDPQRYL
modifications: biotinylated
Work on B1 yielded a Kd [1] of 0.31 nM, a Kd [2] of 0.82 nM and a Kd [3] of 1 nM. The Kd [4] was 1.1 nM, the Kd [5] was 1.3 nM and the Kd [6] was 1.3 nM. For the same binder, the Kd [7] was 1.3 nM, the Kd [8] was 1.5 nM and the Kd [9] was 1.9 nM. The Kd [10] was 2 nM, the Kd [11] was 2.2 nM and the Kd [12] was 2.4 nM. It also gave a Kd [13] of 2.9 nM, a Kd [14] of 3.1 nM and a Kd [15] of 3.2 nM. It also gave a Kd [16] of 3.4 nM, a Kd [17] of 3.6 nM and a Kd [18] of 4 nM. For the same binder, the Kd [19] was 4.8 nM, the Kd [20] was 0.6 nM and the Kd [21] was 5.3 nM. For the same binder, the Kd [22] was 6.4 nM, the Kd [23] was 7.5 nM and the Kd [24] was 0.61 nM. It also gave a Kd [25] of 21 nM, a Kd [26] of 34 nM and a Kd [27] of 0.67 nM.
